Data taken from patent US10052415B2, “Tropoelastin for promoting endothelial cell adhesion or migration” (University of Utah Research Foundation, priority 2005, dated 2018).

Assays:
[1] = tested on: human aortic endothelial cells (HuAEC); assay: Cell adhesion assay on coated culture plates, HuAEC; format: cell-based
Method: (§1) Cells were plated on culture plates coated with either 0.1% BSA (as a control), 10 ug/ml fibronectin (FN), or 10 ug/ml recombinant tropoelastin, and assayed for adherence to the coated substrate.
(§2) 96-well plates were coated in duplicate overnight at 4° C. with 10 μg/ml collagen, fibronectin, tropoelastin, or 0.1% bovine serum albumin (BSA). Cells were harvested with 0.25% trypsin/1 mM EDTA, washed three times in adhesion buffer (0.5% BSA in basal medium), suspended at a working density of 5×10^5/ml in adhesion buffer, and then allowed to recover for 1 h at 37° C. (5% CO2). For integrin-blocking assays, 25 μg/ml anti-integrin antibodies (Chemicon, Temecula, Calif.) or control IgG (Jackson ImmunoResearch Laboratories, Inc, West Grove, Pa.) were added to the cell suspension during the recovery period. During the cell recovery, the coated 96-well plates were washed twice in dPBS and blocked for 1 h at 25° C. in 5.0% BSA (dPBS). The blocking solution was removed, and the wells were washed twice in dPBS. Recovered cells were added to the coated wells in a volume of 100 μl per well and placed at 37° C. for 30 minutes (5% CO2). Following this incubation, the assay plate was inverted and assay wells were washed twice with 100 μl dPBS to remove non-specifically adhered cells. The wells were then fixed in Zamboni fixative, stained with Gill 1 hematoxylin, and overlayed with 80% glycerol. The assay was imaged at 100× magnification, capturing 3 random fields/well on a Zeiss Axiovert 200 inverted microscope equipped with a Zeiss Axiocam digital camera. Readings represent the number of adherent cells/well (average six high powered 100× fields, three taken from each of two separate wells).

[2] = tested on: endothelial progenitor cells; assay: Adhesion assay on coated stainless steel disks, endothelial progenitor cells; format: cell-based, human
Method: We conducted experiments to assess whether tropoelastin promoted the adhesion of endothelial progenitor cells. Tropoelastin was covalently conjugated to a stainless steel disk approximately 6 mm in diameter. As a control, anti-CD34 antibody (known to promote endothelial cell adhesion) was covalently conjugated to similar stainless steel disks. Endothelial progenitor cells were cultured with these coated disks, and adhesion of the cells to the coated disks was assayed.
Adhesion assays on 6 mm stainless steel disks (Orbus Medical Technologies, Ft Lauderdale, Fla.) pre-coated with anti-CD34 antibody, tropoelastin, coating vehicle, or uncoated metal were performed in a similar fashion as described above, with the following modifications: 48-well plates were used to hold the disks during the assay period to facilitate manipulation of the disks and twice the volume of cell suspension was applied (200 μl/well). Exemplary amounts of total protein covalently attached to each disk were approximately 100 micrograms. Post-adhesion, the wells were washed twice in dPBS, using a swirling motion to dislodge non-specifically adhered cells. […]

[3] = tested on: human microvessel endothelial cells (HMVEC); assay: Adhesion assay on coated stainless steel disks, HMVEC; format: cell-based; conditions: FIG. 6
Source text: Given that an important aspect of the present invention is the prevention of restenosis and thrombosis, we conducted experiments to address whether endothelial cells would adhere to metal devices that had been coated with tropoelastin. Briefly, tropoelastin was covalently conjugated to a stainless steel disk approximately 6 mm in diameter. Tropoelastin was linked to the disk surface using an intermediate polysaccharide molecule. An exemplary process for covalently linking tropoelastin to the disk surface, and the process used here, is used in the manufacture of Genous Bio-Engineered R Stents. These disks provided ample surface area for microscopic imaging. Disks were also similarly coated with anti-CD34 antibody and with polysaccharide vehicle alone. Stents coated with anti-CD34 antibody using a similar process (Genous Bio-Engineered R Stents) are currently in human clinical trials and have promise to promote capture of circulating endothelial cells and endothelial progenitor cells and to accelerate endothelialization.
Human microvessel endothelial cells (HMVEC) were cultured with these coated disks, and adhesion of the cells to the coated disks was assayed. […]

[4] = tested on: A2058 human melanoma cells; assay: Cell adhesion assay, A2058 cells; format: cell-based
Method: A2058 cells were assayed for adherence to substrates coated with BSA (control), fibronectin, tropoelastin, or a bioactive fragment of tropoelastin corresponding to a single repeat of the hexameric sequence VGVAPG (SEQ ID No. 5). In comparison to adherence to BSA, A2058 cells adhered to substrates coated with fibronectin tropoelastin, or a bioactive fragment of tropoelastin.
as §2, with “Cells” for “96-well plates were coated in duplicate overnight at 4° C. with 10 μg/ml collagen, fibronectin, tropoelastin, or 0.1% bovine serum albumin (BSA). Cells”

[5] = tested on: human embryonic kidney cells (HEK 293); assay: Cell adhesion assay on coated culture plates, HEK 293 cells; format: cell-based; conditions: culture plates coated with 10 ug/ml protein; 0.1% BSA control
Method: as §1
as §2, with “Following this incubation, the assay plate was inverted and assay wells were washed twice with 100 μl dPBS to remove non-specifically adhered cells. The wells were then fixed in Zamboni fixative, stained with Gill 1 hematoxylin, and overlayed with 80% glycerol. The assay was imaged at 100× magnification, capturing 3 random fields/well on a Zeiss Axiovert 200 inverted microscope equipped with a Zeiss Axiocam digital camera.” left out

B1: tropoelastin: recombinant human tropoelastin lacking native signal sequence, 10× His tag and Factor Xa site on N-terminus, 706 amino acid residues (SEQ ID NO: 4) (protein, listed as Homo sapiens)
chain: MGHHHHHHHHHHSSGGIEGRGGVPGAIPGGVPGGVFYPGAGLGALGGGALGPGGKPLKPVPGGLAGAGLGAGLGAFPAVTFPGALVPGGVADAAAAYKAAKAGAGLGGVPGVGGLGVSAGAVVPQPGAGVKPGKVPGVGLPGVYPGGVLPGARFPGVGVLPGVPTGAGVKPKAPGVGGAFAGIPGVGPFGGPQPGVPLGYPIKAPKLPGGYGLPYTTGKLPYGYGPGGVAGAAGKAGYPTGTGVGPQAAAAAAAKAAAKFGAGAAGVLPGVGGAGVPGVPGAIPGIGGIAGVGTPAAAAAAAAAAKAAKYGAAAGLVPGGPGFGPGVVGVPGAGVPGVGVPGAGIPVVPGAGIPGAAVPGVVSPEAAAKAAAKAAKYGARPGVGVGGIPTYGVGAGGFPGFGVGVGGIPGVAGVPGVGGVPGVGGVPGVGISPEAQAAAAAKAAKYGVGTPAAAAAKAAAKAAQFALLNLAGLVPGVGVAPGVGVAPGVGVAPGVGLAPGVGVAPGVGVAPGVGVAPGIGPGGVAAAAKSAAKVAAKAQLRAAAGLGAGIPGLGVGVGVPGLGVGAGVPGLGVGAGVPGFGAVPGALAAAKAAKYGAAVPGVLGGLGALGGVGIPGGVVGAGPAAAAAAAKAAAKAAQFGLVGAAGLGGLGVGGLGVPGVGGLGGIPPAAAAKAAKYGVAARPGFGLSPIFPGGACLGKACGRKRK
HuAEC adhesion, number of cells bound/well, relative to other coats ([1]; FIG. 2, coated wells): comparable to that observed with fibronectin or collagen | adhesion of HuAEC to the coated substrate ([1]; culture plates coated with 10 ug/ml protein, 0.1% BSA control): adhered to tropoelastin | adhesion of endothelial progenitor cells to coated stainless steel disks ([2]; FIG. 7, protein covalently conjugated to 6 mm disk): promoted adhesion of human endothelial cells to the metal device | cell adhesion compared to polysaccharide-coated control disks or to bare metal disks ([2]; coated metal disks): significant increase in cell adhesion | HMVEC adhesion to coated disks relative to anti-CD34 antibody coated disks [3]: comparable to the adhesion of HMVECs to stainless steel disks coated with an anti-CD34 antibody | adhesion of HMVEC to coated stainless steel disks ([3]; protein covalently conjugated to 6 mm disk): promoted adhesion of human endothelial cells to a metal device | level of A2058 adhesion relative to fibronectin ([4]; 50 μg/ml of tropoelastin): similarly to 10 ug/ml of fibronectin | dose dependence of A2058 adhesion ([4]; FIG. 4): dose dependent | adhesion of A2058 cells in comparison to BSA ([4]; FIG. 4, coated substrates, peptide 10 μM): adhered | adhesion of HEK 293 cells to the coated substrate [5]: do not adhere to tropoelastin
